Our source for the Log (TCID50/ml) with mAb (60 µg/ml CR03-022, FRhK-4 cells) (log TCID50/ml) and NI (neutralization index) values is patent publication US20080014204A1.

This assay has as its target spike protein of wild-type SARS-CoV strain HKU 39849 (SARS-CoV strain HKU 39849). The assay is described as follows: cell-based or functional assay.

With CR03-022 (antibody), the Log (TCID50/ml) with mAb (60 µg/ml CR03-022, FRhK-4 cells) (log TCID50/ml) turned out to be 4 and the NI (neutralization index) stood at 3.3 logs.
